Results on 16 sequences are retold here after the Immune Epitope Database (IEDB).

Targets include HLA-B*35:01; HLA-B*44:03; HLA-B*57:01; HLA-A*02:01; HLA-B*53:01; HLA-B*07:02.
What all share (assay): IEDB peptide-MHC binding, purified MHC/competitive/radioactivity; ≥ and ≤ were set here for values at or beyond the usual limits of such assays
Conditions in all cases: source organism: Bordetella pertussis

Take QITQHGGPY: in the assay with HLA-B*35:01, the IC50 was found to be 44 µM. HAQGKALLY: in the assay with HLA-B*35:01, the IC50 amounted to 0.385 µM. Regarding TVQELALKL, in the assay with HLA-B*44:03, the IC50 was 12.5 µM. As for TSRTVTMRY, the half-maximal inhibitory concentration (IC50) in the assay with HLA-B*57:01 was 0.182 µM. For QITQHGSPY, in the assay with HLA-B*35:01, the IC50 was 34.5 µM.

As for PGPTTDYST, the IC50 with HLA-B*44:03 was at least 78.2 µM. With ITNETGKTY, in the assay with HLA-B*57:01, the 50% inhibitory concentration (IC50) is at least 70.4 µM. Regarding VAVAGGRWH, in the assay with HLA-B*44:03, the IC50 is at least 78.2 µM. For MIYMSGLAV, the IC50 with HLA-A*02:01 was found to be 2.86 µM.

Regarding HADDGTIVI, the IC50 with HLA-B*53:01 is 69.9 µM. In the case of EATQQAAGF, in the assay with HLA-B*35:01, the IC50 amounted to 41.1 µM. Turning to VAMKPYEVT, the half-maximal inhibitory concentration (IC50) with HLA-B*35:01 turned out to be 69.9 µM. With AALGRGHSL, the IC50 in the assay with HLA-A*02:01 was found to be 32.1 µM; with HLA-B*07:02, 19.6 µM. As to GYEAGFSLG, in the assay with HLA-B*53:01, the IC50 stood at 26 µM. Turning to LVFSHVRGM, the IC50 with HLA-B*35:01 was 19.8 µM. In the case of LASDGSVDF, the half-inhibitory concentration (IC50) with HLA-B*53:01 was 23.1 µM.

One may read the IC50 as the point on the concentration scale where inhibition reaches its midpoint.
